# B1: CF-301: WT GMP grade PlySs2 lysin, SEQ ID NO: 1 (protein, listed as Streptococcus suis)
# chain: MTTVNEALNNVRAQVGSGVSVGNGECYALASWYERMISPDATVGLGAGVGWVSGAIGDTISAKNIGSSYNWQANGWTVSTSGPFKAGQIVTLGATPGNPYGHVVIVEAVDGDRLTILEQNYGGKRYPVRNYYSAASYRQQVVHYITPPGTVAQSAPNLAGSRSYRETGTMTVTVDALNVRRAPNTSGEIVAVYKRGESFDYDTVIIDVNGYVWVSYIGGSGKRNYVATGATKDGKRFGNAWGTFK
# Tests used:
# bacterial inoculum = test: Thermal stability: in vitro lytic assay after 30 min heating; format: cell-based; details: 30 minutes at 37° C., 128 μg/mL in Tris buffer pH 8.0; CF-301 set at 100
# Protocol: Thermal stability was assessed by incubating the lysin polypeptides at a fixed concentration of 128 μg/mL in Tris buffer pH 8.0 for 30 minutes at various elevated temperatures (within the range of about 30° C. to 60° C.) prior to assessing activity. The samples were then cooled for 2 minutes on ice and activity was then assessed by an in vitro lytic assay by exposing a bacterial inoculum (OD600 ˜0.5-1.2) in Tris buffer to a 2-fold dilution series of each sample (diluted from 128-0.25 μg/mL across the x-axis of a 96 well microtiter plate). The loss of optical density was followed for 15 minute at room temperature, and the specific activity was determined based on the enzyme concentration enabling a 50% loss of optical density at 15 minutes. The enzyme activities of each variant were compared to the wild-type, CF-301 enzyme (GMT-grade PlySs2 protein) to calculate the % of Wild-Type Activity over a range of temperatures.
# The thermal stability of wild-type, CF-301 was arbitrarily set at 100. The results for exemplary modified lysin polypeptides are set forth below in Table 5 at a single temperature of 37° C.:
# In another experiment, the thermal stability of modified lysin polypeptides was assessed at different temperatures and compared with that of wild-type, CF-301 (set at 100).
# MSSA isolates = test: MIC in CAMHB-HSD against MSSA isolates; format: cell-based, Staphylococcus aureus; details: 51 MSSA isolates
# Protocol: (§1) In vitro activity of the modified lysin polypeptide pp296 was assessed against a range of 51 MSSA and 51 MRSA isolates in cation-adjusted Mueller Hinton broth supplemented with 25% horse serum and 0.5 mM DTT (CAMHB-HSD) and compared to WT GMP grade PlySs2 (CF-301). CF-301 and pp296 were each diluted into CAMHB-HSD. For each lysin, the dilution series is set up such that, after a two-fold dilution of each well of the plate, the final concentrations contained: 64, 32, 16, 8, 4, 2, 1, 0.5, 0.25, and 0.125 μg/mL. Each lysin was tested in duplicate against each strain. Preparations were incubated overnight. Growth was visualized as a growth button approximately 2 mm in diameter. The highest dilution that yielded ≥80% growth inhibition was called the minimum inhibitory concentration (MIC). The activity of pp296 was very similar, within one 2-fold dilution, to that of CF-301, as shown below in Table 7.
# MRSA isolates = test: MIC in CAMHB-HSD against MRSA isolates; format: cell-based, Staphylococcus aureus; details: 51 MRSA isolates
# Protocol: as §1
# [1] = system: 5 MRSA strains and 5 MSSA strains; test: Checkerboard synergy assay with daptomycin or vancomycin; format: cell-based, Staphylococcus aureus; details: with vancomycin
# Protocol: Synergy studies with antibiotics suitable for treatment of Gram-positive bacteria, for example, daptomycin (DAP) and vancomycin (VAN), were performed using a checkerboard assay. Fractional inhibitory concentration (FIC) index values were determined for modified lysin polypeptide pp296 and antibiotic combinations against 5 methicillin-sensitive Staphylococcus aureus (MSSA) and 5 methicillin resistant Staphylococcus aureus (MRSA) isolates. An FIC index value of ≤0.5 may be interpreted as strong synergy between the two agents, while a value between 0.5 and 1 may still be considered a synergistic effect. Given that pp296 has four amino acid replacements in the catalytic domain, the ability of pp296 to synergize with antibiotics was unexpected. […] Qualitatively similar results may be anticipated upon performing similar assays using other de-immunized active variants, such as pp55, pp61, pp65, pp400, and pp619, in accordance with the present disclosure.
# In another experiment, the ability of modified lysin polypeptide pp296 to synergize with daptomycin and vancomycin was assessed using a checkerboard analysis. FIC (fractional inhibitory concentration) index values were determined for pp296 and antibiotic combinations against 5 MSSA and 5 MRSA isolates. A total of 50 μl of Mueller-Hinton broth (BBL) was distributed into each well of microdilution plates. The first antibiotic of the combination was serially diluted along the ordinate, while the second drug was diluted along the abscissa. An inoculum equal to a 0.5 McFarland turbidity standard was prepared from each S. aureus isolate in MHB. Each microtiter well was inoculated with 100 μl of a bacterial inoculum of 5×10^5 CFU/ml, and the plates were incubated at 37° C. for 18 h under aerobic conditions. The resulting checkerboard contained each combination of two antibiotics, with wells that contained the highest concentration of each antibiotic at opposite corners. […] To quantify the interactions between the antibiotics being tested, the FIC index (the combination of antibiotics that produced the greatest change from the individual antibiotic's MIC) value was calculated for each strain and antibiotic combination as follows:
# (A/MICA)+(B/MICB)=FICA+FICB=FIC index,
# Checkerboards were generated using combinations of pp296 with either daptomycin or vancomycin against 5 MRSA strains (MW2, JMI-5675, JMI-4408, JMI-6181, and JMI-6182) and 5 MSSA strains (ATCC 29213, JMI-40979, JMI-43257, JMI-41293, and JMI-49315). Synergy was defined as inhibitory activity greater than what would be predicted by adding the two components together.
# [2] = system: 1-day old biofilms formed by MSSA isolates; test: Minimum Biofilm Eradication Concentration (MBEC), MSSA biofilms; format: cell-based, Staphylococcus aureus; details: 24 hours treatment
# Protocol: (§2) In some embodiments, the present modified lysin polypeptides are capable of reducing a biofilm. […] Biofilms are then washed and treated with e.g., a 2-fold dilution series of the lysin in TSBg at e.g., 37° C. for 24 hours. After treatment, wells are washed, air-dried at e.g., 37° C. and stained with e.g., 0.05% crystal violet for 10 minutes. After staining, the biofilms are destained in e.g., 33% acetic acid and the OD600 of e.g., extracted crystal violet is determined. The MBEC of each sample is the minimum lysin concentration required to remove >95% of the biofilm biomass assessed by crystal violet quantitation.
# (§3) The anti-biofilm activity of pp296 was determined against 1-day old biofilms formed by 17 MSSA and 20 MRSA isolates in a 96-well broth microdilution format. The Minimum Biofilm Eradication Concentration (MBEC) values for pp296, compared to wild-type PlySs2 (CF-301), were determined by the following standard methodology. Bacteria were suspended in PBS (0.5 McFarland Units), diluted 1:100 in TSBg (66% tryptic soy broth, 0.2% glucose), added as 0.15 mL aliquots to 96-well polystyrene microplates, and incubated for 24 hours at 37° C. Biofilms were then washed and treated with a 2-fold dilution series of CF-301 or pp296 in TSBg at 37° C. for 24 hours. All samples were examined in triplicate. After treatment, wells were washed, air-dried at 37° C., and stained with 0.05% crystal violet for 10 min The loss of biofilm biomass was assessed visually, and crystal violet was quantitated by solubilization in 33% (vol/vol) acetic acid. The optical density of 600 nm (OD600) was determined using a SpectraMax M3 Multimode microplate reader. The MBEC of each sample was the minimum lysin concentration required to remove >95% of the biofilm biomass assessed by crystal violet quantitation.
# [3] = system: 1-day old biofilms formed by MRSA isolates; test: Minimum Biofilm Eradication Concentration (MBEC), MRSA biofilms; format: cell-based, Staphylococcus aureus; details: 24 hours treatment
# Protocol: as §2, §3
# [4] = Toxicity screening in mice; format: in vivo
# Protocol: Selected modified lysin polypeptides from Table 3 were subjected to further testing as described in more detail in subsequent Examples. […] The same 30 mg/kg dose of PlySs2 caused a 100% incidence of adventitial findings, which is an indication of potential toxicity.
# [5] = system: 5 MRSA strains and 5 MSSA strains; test: Checkerboard synergy assay with daptomycin or vancomycin; format: cell-based, Staphylococcus aureus; details: MRSA (JMI-41293) strain
molecule,measurement,setting,value
B1,% Wild-Type Activity at 37° C.,bacterial inoculum,100%
same,MIC50,MSSA isolates,0.5 µg/mL
same,MIC90,MSSA isolates,1 µg/mL
same,MIC Range,MSSA isolates,0.5 to 1 µg/mL
same,MIC50,MRSA isolates,0.5 µg/mL
same,MIC90,MRSA isolates,0.5 µg/mL
same,MIC Range,MRSA isolates,0.12 to 1 µg/mL
same,FIC index,[1]; MRSA JMI-6182,0.5
same,FIC index,[1]; MSSA ATCC 29213,0.5
same,FIC index,[1]; MSSA strain JMI-40979,0.5
same,FIC index,[1]; against 6 of the 10 strains examined,0.5
same,MBEC50,[2],0.125 µg/mL
same,MBEC90,[2],0.125 µg/mL
same,MBEC Range,[2],0.125 to 0.5 µg/mL
same,MBEC50,[3],0.125 µg/mL
same,MBEC90,[3],0.125 µg/mL
same,MBEC Range,[3],0.125 to 0.25 µg/mL
same,Kidney findings (renal changes),[4],did not result in kidney findings
same,Adventitial findings (lesions),[4]; 30 mg/kg,all mice
same,Incidence of adventitial findings,[4]; 30 mg/kg,100%
same,FIC index,[5],0.5

# Source: US20210032294A1, “MODIFIED PlySs2 LYSINS AND USES THEREOF” (CONTRAFECT CORPORATION, priority 2018, published 2021)
